Experimental data taken from article PMC8562477.

System: T1, MBP-RstA D52A D52A (Pseudomonas fluorescens 2P24), ORF:4a43b447
T1 sequence: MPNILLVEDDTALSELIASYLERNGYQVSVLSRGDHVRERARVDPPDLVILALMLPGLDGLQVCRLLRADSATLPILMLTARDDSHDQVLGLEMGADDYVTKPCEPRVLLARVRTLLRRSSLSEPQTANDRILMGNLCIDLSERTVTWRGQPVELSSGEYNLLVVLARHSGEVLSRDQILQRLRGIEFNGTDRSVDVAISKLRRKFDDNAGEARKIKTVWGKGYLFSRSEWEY
Assay: EMSA
Details: EMSA: 50 mM Tris-HCl pH 7.5, 10 mM MgCl2, 10% glycerol, 0.5 mM EDTA, 50 mM KCl, 3 uM BSA, 50 ng DNA in 20 ul, 30 min room temperature, 6% native PAGE

| Sequence | binding |
| --- | --- |
| CGGCCTGTGTGATTACACAATTTCACAGAGCGCCTACAAAGCTTCACCCCTGTCATGGGCCTGGATCCCTACCATGAGCGGCTCAATATTGGGGAAGCACC (double strand) [FAM-mexC promoter] | binds more weakly |
| GGCAATAAACACCTCAATCAGGATGCGTCAGCAATGCGTAAGCATCAGCTGAACAAAATATGAGGCGACGTCTCTTGAAACGCGTCTCCGATCTATACAGGCCTTTGTCAGGCTTTTGTAAATCCGGATATTACGCAATTTGGCTGTTTACAAACAACCGTGTACGTAAGTATATTTCTTAGCATCCTACTAATTGAAAAAATGCTCCTTTTTTACCCTTCCACCTTTCGAGTGCGCCAGTTACGCGCCTGGACCCGAGGATTT (double strand) [FAM-emhA promoter] | binds more weakly |
